Bridge positions count the residues as written; N and C are the ends. Square brackets hold non-standard residues; d marks the D form. Peptide text beside a SMILES is read from it. * marks the point of attachment. NOTA = O=C(O)CN1CCN(CC(=O)O)CCN(CC(=O)*)CC1; 2Nal = N[C@@H](Cc1ccc2ccccc2c1)C(=O)O; Pen = CC(C)(S)[C@H](N)C(=O)O; 4Amb = NCc1ccc(C(=O)O)cc1; Ahx = NCCCCCC(=O)O
How the values were obtained:
CXCR4 expression = target: T1, CXCR4 expression (Homo sapiens, UniProt P61073); settings: in vivo
T1 construct: from tissue; host or cells: tumour lesions in cancer patients (DLBCL, SCLC, NSCLC, TNBC, pancreatic carcinoma, glioma, HCC, CRC), in vivo
From the text: Potential eligible patients with newly diagnosed tumor were recruited from Shandong Cancer Hospital and institute from November 2022 to December 2023. A total of 55 patients including 8 tumor types were represented in this study (diffuse large B-cell lymphoma (DLBCL), n = 6; SCLC, n = 30; non-small cell lung cancer (NSCLC), n = 4; triple-negative breast cancer (TNBC), n = 3; pancreatic carcinoma, n = 3; glioma, n = 7; hepatocellular carcinoma (HCC), n = 1; and colorectal carcinoma (CRC), n = 1). The [^18F]AlF-NOTA-QHY-04 imaging study in patients was approved by the Institutional Review Board of Shandong Cancer Hospital and Institute (no. SDZLEC2023-256-02), and the patients provided their informed consent before inclusion in this study. In this prospective observational study, [^18F]AlF-NOTA-QHY-04 PET/CT scans should not affect the normal process of routine examinations and treatment as usual. Patients were enrolled according to the following criteria: (1) newly diagnosed cancer patients with visible tumors on conventional imaging; (2) histopathologically confirmed diagnosis; (3) age ≥ 18 years; (4) Eastern Cooperative Oncology Group (ECOG) performance status score of 0-2; (5) no prior cancer-directed therapy; (6) ability to undergo [^18F]AlF-NOTA-QHY-04 PET/CT scanning before treatment initiation. Specifically, regarding histological confirmation, we followed the standard clinical practice guidelines for each type of cancer [21]-[26], and provided detailed descriptions of our approach for obtaining histological evidence in the supplemental materials. […]
NaOH. Finally, the cell lysates were collected and measured by an automatic gamma counter (2470 Wizard2, PerkinElmer). […]
The tumor-bearing mice were injected with 3.70 ± 0.74 MBq of [18F]AlF-NOTA-QHY-04 in about 150 μL saline via the tail vein. […] The PET/CT images were analyzed using OsiriX MD software (Pixmeo SARL, Geneva, Switzerland), and the regions of interest (ROIs) were drawn along the boundary covering the whole tumor volume for quantification of the radioactivity (expressed as %ID/mL). […]

[1] = in vivo; cited from earlier work
From the text: (Figure 3A and 3B). In contrast, the blood, heart, liver, ...

T1 sequence (P61073 whole entry): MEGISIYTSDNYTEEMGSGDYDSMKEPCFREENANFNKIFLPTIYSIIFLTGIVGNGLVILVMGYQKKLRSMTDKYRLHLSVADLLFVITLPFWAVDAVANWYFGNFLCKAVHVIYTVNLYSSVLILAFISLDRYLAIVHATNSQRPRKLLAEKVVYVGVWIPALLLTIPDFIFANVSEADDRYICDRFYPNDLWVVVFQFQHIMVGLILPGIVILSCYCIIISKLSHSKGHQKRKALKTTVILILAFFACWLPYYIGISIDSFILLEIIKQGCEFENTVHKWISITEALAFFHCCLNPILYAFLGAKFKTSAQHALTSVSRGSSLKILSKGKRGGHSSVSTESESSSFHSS

Structure (SMILES): C[C@H](NC(=O)[C@H](CCCNC(=N)N)NC(=O)CCCCCNC(=O)c1ccc(CNC(=O)CN2CCN(CC(=O)O)CCN(CC(=O)O)CC2)cc1)C(=O)N[C@@H]1CSSC(C)(C)[C@@H](C(=O)O)NC(=O)[C@H](Cc2c[nH]cn2)NC(=O)[C@H](Cc2ccc3ccccc3c2)NC(=O)[C@H](CCCNC(=N)N)NC1=O [[^18F]AlF-NOTA-QHY-04] ({NOTA-4Amb-Ahx}-RA[dC]R[2Nal]H[Pen]-OH; disulfide 3-7)
- SUVmean (CXCR4 expression): 7.52 ± 3.01
- average SUVmax (CXCR4 expression): 6.29 ± 2.85
- average T/N (tumor-to-normal brain ratio) (CXCR4 expression): 62.55 ± 43.24
- acute radiotoxicity [1]: no acute radiotoxicity
